Drawing on article PMC6356648, this text covers contraction of a collagen-I gel by iCAFs, untreated (reference), contraction of a collagen-I gel by iCAFs, with BM2 (20 µg/mL) and contraction of a collagen-I gel by iCAFs, with lebein-1 (10 µg/mL) for 1 substance.

This test addresses laminin-332 produced and deposited by iNFs and iCAFs (human (endogenous in iNFs and iCAFs)) (UniProt Q16787).

For “integrin α3β1 (from UniProt P26006 33-1051; P05556 21-798) (receptor)”, the contraction of a collagen-I gel by iCAFs, untreated (reference) turned out to be 73%; the contraction of a collagen-I gel by iCAFs, with BM2 (20 µg/mL) came out at 44%; the contraction of a collagen-I gel by iCAFs, with lebein-1 (10 µg/mL) came out at 34%.
